Source: US6835539B1, “Nucleic sequences coding for an AT2 interacting proteins interacting with the AT2 receptor and their applications” (priority 1998, dated 2004)

B1: ATIPmouse-short: Polypeptide (SEQ ID NO:6) encoded by the 354 bp ATIP clone (SEQ ID NO:5); AT2 interacting protein fragment, used as a GST fusion (protein)
chain: HQTDRTELENRLKDLYTAECEKLQSIYIEEAEKYKTQLQEQFDNLNAAHETTKLEIEASHSEKVELLKKTYETSLSEIKKSHEMEKKSLEDLLNEKQESLEKQINDLKSENDALNERL
modifications: used as GST fusion; Insert identified by yeast two hybrid screening of a M. musculus fetal cDNA library

Tests used:
[1] = biological target: T1, AT2 receptor (Homo sapiens, UniProt P50052); experiment: Inhibition of insulin-induced tyrosine phosphorylation in CHO-hAT2-ATIP cells; assay type: cell-based; set-up: a plasmid containing the region encoding the human AT2 receptor; expressed in transfected cells; host or cells: CHO-hAT2 cells stably transfected with ATIPmouse-long; details: 100 nM, insulin 0.05, 0.01, 0.005, 0.001 μg/ml, reproduced 3 times
T1 sequence (P50052 1-363): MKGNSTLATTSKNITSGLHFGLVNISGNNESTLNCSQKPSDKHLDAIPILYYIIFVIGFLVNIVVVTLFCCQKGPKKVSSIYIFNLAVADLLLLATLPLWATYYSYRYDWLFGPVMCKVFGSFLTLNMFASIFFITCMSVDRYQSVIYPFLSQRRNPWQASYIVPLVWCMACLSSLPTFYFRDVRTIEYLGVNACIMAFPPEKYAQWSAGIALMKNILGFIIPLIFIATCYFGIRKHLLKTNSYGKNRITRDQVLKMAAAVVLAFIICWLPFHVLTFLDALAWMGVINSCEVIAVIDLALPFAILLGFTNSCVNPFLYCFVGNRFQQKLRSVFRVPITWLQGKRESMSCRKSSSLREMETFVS
Text: (§1) For that, a stable clone of CHO-hAT2 cells expressing the ATIPmouse-long protein (CHO-hAT2-ATIP), obtained according to the methodology described in Example 4, was used; the functional test for the activity of the AT2 receptor developed on the CHO-hAT2 clone which consists in inhibiting the phosphorylation of the IRβ subunit of the insulin receptor induced by its ligand, was reproduced.
The CHO-hAT2 cells are inoculated at a density of 3×10^6 cells per dish having a diameter of […]. They are made quiescent by 16 hours of deprivation before being treated. The treatment consists in bringing into contact for 5 minutes with 15 ml of F12 medium containing insulin supplemented or otherwise with CGP42112 (selective agonist of the AT2 receptor). […] After bringing into contact and washings, the lectin beads coupled to Sepharose (Pharmacia) are recovered in sample buffer containing SDS and the eluted proteins are analysed in SDS-PAGE followed by immunoblotting with anti-phosphotyrosine antibodies (Upstate Biotechnology, Inc.) or anti-IRβ antibodies (described in Issad, T. et al., cited above). […]

[2] = biological target: T1, AT2 receptor; experiment: Inhibition of insulin-induced tyrosine phosphorylation in CHO-hAT2 cells; assay type: cell-based; set-up: a plasmid containing the region encoding the human AT2 receptor; expressed in transfected cells; host or cells: CHO cells deficient in dihydrofolate reductase (clone CHO-hAT2)
Text: as §1
The CHO-hAT2 cells are inoculated at a density of 3×10^6 cells per dish having a diameter of […]. They are made quiescent by 16 hours of deprivation before being treated. […] After treatment, the cells are solubilized in lysis buffer containing: 50 mM Hepes, pH 7.6, 1% Triton X-100, 20 mM EDTA, 30 mM sodium pyrophosphate, 30 mM sodium fluoride, 2 mM benzamidine, 1 mM sodium orthovanadate, 1 mM phenylmethylsulphonyl fluoride and 1 μg/ml of aprotinin, pepstatin, antipain and leupeptin. The lysates are then subjected to purification on a wheatgerm lectin column, according to the protocol described in Issad, T. et al., (Eur. J. Biochem. 1995, 234, 108-115). After bringing into contact and washings, the lectin beads coupled to Sepharose (Pharmacia) are recovered in sample buffer containing SDS and the eluted proteins are analysed in SDS-PAGE followed by immunoblotting with anti-phosphotyrosine antibodies (Upstate Biotechnology, Inc.) or anti-IRβ antibodies (described in Issad, T. et al., cited above).

[3] = biological target: T2, C-terminal end of the mouse AT2 receptor (Mus musculus, UniProt P35374); experiment: Two-hybrid interaction of the ATIP clone with the AT2 C-terminal bait; assay type: binding; details: baits in pGBT9 and pLEX9; mouse foetal cDNA library clone
T2 construct: expressed in transfected cells; host or cells: yeast HF7c (pGBT9 bait) or L40 (pLex9 bait)
T2 sequence (P35374 312-363): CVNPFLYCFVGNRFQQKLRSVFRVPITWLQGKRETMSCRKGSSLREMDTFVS
Text: In the two-hybrid system, the DNA-binding domain is fused with a protein X and the activation domain is fused with a protein Y. If, and only if, X and Y interact, a complex is formed which reconstitutes a functional transcription factor.
Protein X: C-terminal end of the sequence encoding the mouse AT2 receptor (52 amino acids of CVNPF at the stop codon, see FIG. 1), fused with the sequence encoding the Gal4 DNA-binding domain (FIG. 2).
Insert: end of the mouse AT2 receptor (159 bp+16 bp of sites generated by PCR) inserted at the level of the EcoRI and BamHI sites of the vectors pLEX9 (Clontech) or pGBT9 (modified pGAD424 or pBTM116; A. B. Vojtek et al., Cell, 1993, 74, 205-214).
mouse foetal cDNA library (A. B. Vojtek et al., Cell, 1993, 74, 205-214) , containing inserts of 350 to 700 bp (protein Y) in the vector VP16 (FIG. 5).
HF7c (Clontech) for the bait constructed in pGBT9;
L40 for the bait constructed in pLex9.

[4] = test system: C-terminal end of the human bradykinin receptor; experiment: Two-hybrid selectivity test with a control bait; assay type: binding
Text: (§2) Protein X: C-terminal end of the human β2-adrenergic receptors, rat AT1 or human bradykinin.

[5] = biological target: T3, C-terminal end of the human β2 adrenergic receptor (Homo sapiens, UniProt P07550); experiment: Two-hybrid selectivity test with a control bait; assay type: binding
T3 construct: C-terminal end of the human β2-adrenergic receptors; expressed in transfected cells
Text: as §2

[6] = test system: C-terminal end of the rat AT1 receptor; experiment: Two-hybrid selectivity test with a control bait; assay type: binding
Text: as §2

[7] = biological target: T4, C-terminal end of the human AT2 receptor (Asn314-Ser363) (Homo sapiens, UniProt P50052); experiment: In vitro GST pull-down of MBP-AT2 on GA-GST-ATIPmouse-short beads; assay type: binding; details: compared with GA-GSTalone beads; SDS-PAGE and anti-MBP immunoblot; FIG. 10
T4 construct: C-terminal end of the human AT2 receptor (Asn314-Ser363); made in house; host or cells: E. coli DH5α (pMAL-c2-AT2)
T4 sequence (P50052 314-363): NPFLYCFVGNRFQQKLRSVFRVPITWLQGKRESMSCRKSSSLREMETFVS
Procedure: For that, the fusion protein GST-ATIP as described above was produced; it is combined through its GST part with glutathione coupled to agarose beads (GA). In parallel, bacteria (DH5α) are transfected with a plasmid (pMAL-c2-AT2, derived from pMAL-c2 from New England Biolabs) encoding a fusion protein between the C-terminal end of the human AT2 receptor (Asn314-Ser363) and MBP (Maltose Binding Protein). These bacteria were cultured and the fusion protein was induced in 0.3 mM IPTG according to the protocol “pMAL Protein Fusion and Purification System” from New England Biolabs. After centrifugation of the culture at 4000 g and solubilization of the pellet obtained in “column buffer” (20 mM Tris-HCl, 200 mM NaCl, 1 mM EDTA), another centrifugation at 9000 g made it possible to recover a supernatant containing a high concentration of MBP-AT2. This supernatant was brought into contact, for 3 hours at […], with glutathione agarose beads coupled to GST protein alone after addition of NaCl so as to have 300 mM final NaCl. This preincubation step makes it possible to remove the nonspecific interactions which may exist between ATIP and GA-GST. The supernatant recovered was brought into contact with the GA-GST-ATIPmouse-short or GA-GSTalone beads overnight at 4° C. After contact, the beads were rinsed three times in 20 mM Tris-HCl buffer, 300 mM NaCl, 1 mM EDTA and once in “column buffer”.

[8] = biological target: T5, C-terminal end of human AT1 receptor (Leu 297-Glu 359) (Homo sapiens, UniProt P30556); experiment: In vitro GST pull-down of MBP-AT1 on GA-GST-ATIPmouse-short beads; assay type: binding; details: SDS-PAGE and anti-MBP immunoblot; FIG. 10
T5 construct: C-terminal end of human AT1 receptor (Leu 297-Glu 359); made in house; host or cells: bacteria, same protocol as MBP-AT2 (E. coli DH5α)
T5 sequence (P30556 297-359): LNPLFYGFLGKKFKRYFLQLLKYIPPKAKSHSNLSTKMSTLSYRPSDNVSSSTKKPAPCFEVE

| Molecule | inhibition of the phosphorylation of the insulin receptor [1] | inhibition of the phosphorylation of IRβ induced by insulin ([2]; CHO-hAT2 cells, 100 nM, all insulin doses between 0.1 and 0.001 μg/ml, 5 minutes) | inhibition of the phosphorylation of IRβ ([2]; CHO-hAT2 cells, induced by 0.01 μg/ml insulin, n=7) [%] | inhibition of insulin-induced tyrosine phosphorylation of SIRP (120 kDa) ([2]; clone CHO-hAT2) | interaction with the C-terminal end of AT2 in the two-hybrid system [3] | two-hybrid interaction with the C-terminal end of the human bradykinin receptor [4] | two-hybrid interaction with the C-terminal end of the human β2 adrenergic receptor [5] | two-hybrid interaction with the C-terminal end of the rat AT1 receptor [6] | retention of the MBP-AT2 protein on GA-GST-ATIPmouse-short beads [7] | retention of the MBP-AT1 protein on GA-GST-ATIPmouse-short beads [8] |
| --- | --- | --- | --- | --- | --- | --- | --- | --- | --- | --- |
| CGP42112 | not observed | inhibit | 64±4 | inhibited |  |  |  |  |  |  |
| B1 |  |  |  |  | interacts specifically | negative results | negative results | negative results | specific retention | not retained in a specific manner |
